Measurements taken from patent publication US10434074B2, “Peptide and small molecule agonists of EPHA and uses thereof” (CASE WESTERN RESERVE UNIVERSITY, priority 2004, dated 2019).

Test system: H125, H1975 and SKMES cells
Experiment: ERK and AKT phosphorylation in non-small cell lung cancer cells
Format: cell-based, human
Settings: 2 ìg/ml, 10 and 30 minutes
Text: (§1) FIGS. 47(A-C) illustrate A) Expression of β-gal in EphA2 KO mouse lung. Frozen sections were fixed and stained with X-gal and followed by counterstaining with nuclear Fast-Red. B) Expression of EphA2 in the lung from wild-type mice. Lung frozen sections were stained with goat polyclonal antibodies that recognize the ectodomain of EphA2 followed by detection with donkey anti-goat IgG conjugated with FITC. C) EphA kinase activation by ephrin-A1 in H125, H1975 and SKMES human non-small cell lung cancer cells. Cells were stimulated with 2 ìg/ml of ephrin-A1-Fc for 10 and 30 minutes.
as §1, with “FIG. 47A illustrates the expression” for “FIGS. 47(A-C) illustrate A) Expression”, “knockout” for “KO”, “FIG. 47B illustrates expression” for “B) Expression”, “FIG. 47C illustrates” for “C)”

B1: ephrin-A1-Fc: ephrin-A1 dimerized by fusion to the heavy chain of human IgG1 (protein)
chain: DRHTVFWNSSNPKFRNEDYTIHVQLNDYVDIICPHYEDHSVADAAMEQYILYLVEHEEYQLCQPQSKDQVRWQCNRPSAKHGPEKLSEKFQRFTPFTLGKEFKEGHSYYYISKPIHQHEDRCLRLKVTVSGKITHSPQAHDNPQEKRLAADDPEVRVLHSIGHS
modifications: left off: a dimerising Fc or GST
notes: ephrin-A1 dimerized by fusion to the heavy chain of human IgG1
  ERK and AKT phosphorylation: inhibits ERK and AKT phosphorylation
